In patent US20220411483A1 (Chugai, published 2022):
Changes are numbered by the printed parent chain. Each block holds one binder with its values, some of them ahead of it.

Key:
[1] = biological target: T1, FcgRIIaR (human, UniProt P12318 34-217); assay: SPR, amount bound per captured antibody
T1 construct: extracellular domain; also called FcγRIIa R type; FcγRIIa (R type)
T1 sequence (looked up): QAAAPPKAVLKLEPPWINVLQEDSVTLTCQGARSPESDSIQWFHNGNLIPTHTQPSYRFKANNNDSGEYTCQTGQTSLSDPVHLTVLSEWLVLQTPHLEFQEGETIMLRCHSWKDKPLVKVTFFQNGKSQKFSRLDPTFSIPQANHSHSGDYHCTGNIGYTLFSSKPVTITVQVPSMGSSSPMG

[2] = biological target: T2, FcgRIIb (human, UniProt P31994 43-217); assay: SPR, amount bound per captured antibody
T2 construct: extracellular domain; also called FcγRIIb
T2 sequence (looked up): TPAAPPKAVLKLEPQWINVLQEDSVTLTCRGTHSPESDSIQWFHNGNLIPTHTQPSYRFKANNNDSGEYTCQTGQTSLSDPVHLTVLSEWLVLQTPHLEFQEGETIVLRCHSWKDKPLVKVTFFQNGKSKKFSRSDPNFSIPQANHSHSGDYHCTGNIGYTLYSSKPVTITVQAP

[3] = biological target: T3, human complement C1q (human, UniProt P02745 23-245; P02746 28-253; P02747 29-245); assay: SPR, C1q bound per antibody captured on Protein L
T3 construct: Bought (PROSPEC or Calbiochem); also called human C1q
Method: The interaction between an antibody and human C1q was analyzed using Biacore T200 (GE Healthcare). HBS-EP+ (GE Healthcare) was used as the running buffer, and the measurement temperature was set at 25° C. Chips produced by immobilizing Protein L (ACTIGEN or BioVision) onto Series S sensor Chip CM4 (GE Healthcare) by amine coupling were used.
The antibodies of interest were captured onto these sensor chips, and allowed to interact with human complement C1q (PROSPEC or Calbiochem) diluted in the running buffer. The amount of antibody binding was determined, and comparisons were made among the antibodies. However, since the amount of C1q bound depends on the amount of captured antibodies, corrected values obtained by dividing the amount of C1q bound by the amount of each antibody captured were compared. Furthermore, by reaction with 10 mM glycine-HCl, pH 1.5, the antibodies captured onto the sensor chips were washed, and the sensor chips were recycled and reused.

T3 sequence (P02745 23-245 limits assumed, chain 1 of 3): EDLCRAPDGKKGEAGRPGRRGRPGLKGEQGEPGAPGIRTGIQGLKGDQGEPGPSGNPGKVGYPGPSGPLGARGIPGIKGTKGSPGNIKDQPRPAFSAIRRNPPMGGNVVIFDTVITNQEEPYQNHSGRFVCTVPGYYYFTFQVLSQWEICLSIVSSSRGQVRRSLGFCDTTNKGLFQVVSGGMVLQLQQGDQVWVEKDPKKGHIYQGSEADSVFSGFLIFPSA
T3 sequence (P02746 28-253 limits assumed, chain 2 of 3): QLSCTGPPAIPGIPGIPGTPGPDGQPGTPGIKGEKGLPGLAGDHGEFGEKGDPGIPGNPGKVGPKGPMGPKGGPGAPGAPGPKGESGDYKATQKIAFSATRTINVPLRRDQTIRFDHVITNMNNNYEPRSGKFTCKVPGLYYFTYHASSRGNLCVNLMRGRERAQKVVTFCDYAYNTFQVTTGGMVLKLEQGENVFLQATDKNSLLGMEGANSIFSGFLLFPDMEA
T3 sequence (P02747 29-245 limits assumed, chain 3 of 3): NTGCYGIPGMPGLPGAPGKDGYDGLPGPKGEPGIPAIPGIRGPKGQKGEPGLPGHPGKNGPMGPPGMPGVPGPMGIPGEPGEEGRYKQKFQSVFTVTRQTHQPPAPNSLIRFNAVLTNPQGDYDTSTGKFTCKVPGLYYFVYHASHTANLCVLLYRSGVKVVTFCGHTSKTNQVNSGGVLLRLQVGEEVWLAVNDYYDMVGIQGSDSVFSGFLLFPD

Relative FcgRIIaR-binding Activity [1]: 89.2 IL6R-G1d/IL6R-L=100
Relative FcgRIIb-binding Activity [2]: 327 IL6R-G1d/IL6R-L=100
Amount of C1q-binding when that for G1d is Defined as 100 [3]: 22.6 G1d=100
B1: IL6R-P757/IL6R-L (antibody, human IgG1, kappa)
heavy: QVQLQESGPGLVKPSETLSLTCAVSGHSISHDHAWSWVRQPPGEGLEWIGFISYSGITNYNPSLQGRVTISRDNSKNTLYLQMNSLRAEDTAVYYCARSLARTTAMDYWGEGTLVTVSSASTKGPSVFPLAPSSKSTSGGTAALGCLVKDYFPEPVTVSWNSGALTSGVHTFPAVLQSSGLYSLSSVVTVPSSSLGTQTYICNVNHKPSNTKVDKKVEPKSCDKTHTCPPCPAPELLGGDSVFLFPPKPKDTLMISRTPEVTCVVIDVAEEDGEVKFNWYVDGVEVHNAKTKPREEQYNSTYRVVSVLTVLHQDWLNGKEYKCKVSNKGLPSSIEKTISKAKGQPREPQVYTLPPSRDELTKNQVSLTCLVKGFYPSDIAVEWESNGQPENNYKTTPPVLDSDGSFFLYSKLTVDKSRWQQGNVFSCSVMHEALHNHYTQKSLSLSP
light: not shown

Relative FcgRIIaR-binding Activity [1]: 90.6 IL6R-G1d/IL6R-L=100
Relative FcgRIIb-binding Activity [2]: 285 IL6R-G1d/IL6R-L=100
Amount of C1q-binding when that for G1d is Defined as 100 [3]: 2 G1d=100
B3: IL6R-P758/IL6R-L (antibody, human IgG1, kappa)
heavy: B1 heavy with G239D, I266V, A269S, E270D
light: not shown

Relative FcgRIIaR-binding Activity [1]: 96.5 IL6R-G1d/IL6R-L=100
Relative FcgRIIb-binding Activity [2]: 305 IL6R-G1d/IL6R-L=100
Amount of C1q-binding when that for G1d is Defined as 100 [3]: 14.5 G1d=100
B4: IL6R-P759/IL6R-L (antibody, human IgG1, kappa)
heavy: B1 heavy with E235D, G239D, I266V, A269S, E270D
light: not shown

Relative FcgRIIaR-binding Activity [1]: 75.8 IL6R-G1d/IL6R-L=100
Relative FcgRIIb-binding Activity [2]: 252 IL6R-G1d/IL6R-L=100
Amount of C1q-binding when that for G1d is Defined as 100 [3]: 14.6 G1d=100
B7: IL6R-P762/IL6R-L (antibody, human IgG1, kappa)
heavy: B1 heavy with I266V, A269S, E270H
light: not shown

Relative FcgRIIaR-binding Activity [1]: 5.6 IL6R-G1d/IL6R-L=100
Relative FcgRIIb-binding Activity [2]: 85.8 IL6R-G1d/IL6R-L=100
Amount of C1q-binding when that for G1d is Defined as 100 [3]: 1.8 G1d=100
B9: IL6R-P754/IL6R-L (antibody, human IgG1, kappa)
heavy: QVQLQESGPGLVKPSETLSLTCAVSGHSISHDHAWSWVRQPPGEGLEWIGFISYSGITNYNPSLQGRVTISRDNSKNTLYLQMNSLRAEDTAVYYCARSLARTTAMDYWGEGTLVTVSSASTKGPSVFPLAPSSKSTSGGTAALGCLVKDYFPEPVTVSWNSGALTSGVHTFPAVLQSSGLYSLSSVVTVPSSSLGTQTYICNVNHKPSNTKVDKKVEPKSCDKTHTCPPCPAPELLGQDSVMLFPPKPKDTLMISRTPEVTCVVVDVSPEDPEVKFNWYVDGVEVHNAKTKPREEQENSTYRVVSVLTVLHQDWLNGKEYKCAVHNKALPHPIEKTISKAKGQPREPQVYTLPPSRDELTKNQVSLTCLVKGFYPSDIAVEWESNGQPENNYKTTPPVLDSDGSFFLYSKLTVDKSRWQQGNVFSCSVMHEALHNHYTQKSLSLSP
light: not shown

Relative FcgRIIaR-binding Activity [1]: 93.2 IL6R-G1d/IL6R-L=100
Relative FcgRIIb-binding Activity [2]: 340 IL6R-G1d/IL6R-L=100
Amount of C1q-binding when that for G1d is Defined as 100 [3]: 46.6 G1d=100
B10: IL6R-P765/IL6R-L (antibody, human IgG1, kappa)
heavy: B1 heavy with E270H, G329A, S332A, S333P
light: not shown

Relative FcgRIIaR-binding Activity [1]: 88.1 IL6R-G1d/IL6R-L=100
Relative FcgRIIb-binding Activity [2]: 286 IL6R-G1d/IL6R-L=100
Amount of C1q-binding when that for G1d is Defined as 100 [3]: 21.8 G1d=100
B12: IL6R-P766/IL6R-L (antibody, human IgG1, kappa)
heavy: B1 heavy with I266V
light: not shown

Relative FcgRIIaR-binding Activity [1]: 103 IL6R-G1d/IL6R-L=100
Relative FcgRIIb-binding Activity [2]: 320 IL6R-G1d/IL6R-L=100
Amount of C1q-binding when that for G1d is Defined as 100 [3]: 2.1 G1d=100
B13: IL6R-P761/IL6R-L (antibody, human IgG1, kappa)
heavy: B1 heavy with E235D, G239D, I266V, A269S
light: not shown

Relative FcgRIIaR-binding Activity [1]: 84.2 IL6R-G1d/IL6R-L=100
Relative FcgRIIb-binding Activity [2]: 318 IL6R-G1d/IL6R-L=100
Amount of C1q-binding when that for G1d is Defined as 100 [3]: 1.7 G1d=100
B14: IL6R-P767/IL6R-L (antibody, human IgG1, kappa)
heavy: B1 heavy with A269S
light: not shown

The next lines start with the binder.

B2: IL6R-P747/IL6R-L (antibody, human IgG1, kappa)
heavy: B9 heavy with L237F, P270H, A324E, H326S, H332A
light: not shown
Relative FcgRIIaR-binding Activity [1]: 10 IL6R-G1d/IL6R-L=100
Relative FcgRIIb-binding Activity [2]: 98.1 IL6R-G1d/IL6R-L=100
Amount of C1q-binding when that for G1d is Defined as 100 [3]: 13.7 G1d=100

B5: IL6R-P737/IL6R-L (antibody, human IgG1, kappa)
heavy: B9 heavy with A324K
light: not shown
Relative FcgRIIaR-binding Activity [1]: 8 IL6R-G1d/IL6R-L=100
Relative FcgRIIb-binding Activity [2]: 78.7 IL6R-G1d/IL6R-L=100
Amount of C1q-binding when that for G1d is Defined as 100 [3]: 45.7 G1d=100

B6: IL6R-P744/IL6R-L (antibody, human IgG1, kappa)
heavy: B9 heavy with Q239G, M243F, P270H, E298Y, S300A, H326S, H332A
light: not shown
Relative FcgRIIaR-binding Activity [1]: 11.1 IL6R-G1d/IL6R-L=100
Relative FcgRIIb-binding Activity [2]: 81.4 IL6R-G1d/IL6R-L=100
Amount of C1q-binding when that for G1d is Defined as 100 [3]: 13.6 G1d=100

B8: IL6R-P750/IL6R-L (antibody, human IgG1, kappa)
heavy: B9 heavy with L237F, H326S, H332A
light: not shown
Relative FcgRIIaR-binding Activity [1]: 6.1 IL6R-G1d/IL6R-L=100
Relative FcgRIIb-binding Activity [2]: 48.1 IL6R-G1d/IL6R-L=100
Amount of C1q-binding when that for G1d is Defined as 100 [3]: 1.2 G1d=100

B11: IL6R-P749/IL6R-L (antibody, human IgG1, kappa)
heavy: B9 heavy with A324E, H326S
light: not shown
Relative FcgRIIaR-binding Activity [1]: 6.8 IL6R-G1d/IL6R-L=100
Relative FcgRIIb-binding Activity [2]: 73.9 IL6R-G1d/IL6R-L=100
Amount of C1q-binding when that for G1d is Defined as 100 [3]: 13.8 G1d=100

B15: IL6R-P752/IL6R-L (antibody, human IgG1, kappa)
heavy: B9 heavy with L237F, H332A
light: not shown
Relative FcgRIIaR-binding Activity [1]: 7.2 IL6R-G1d/IL6R-L=100
Relative FcgRIIb-binding Activity [2]: 62.9 IL6R-G1d/IL6R-L=100
Amount of C1q-binding when that for G1d is Defined as 100 [3]: 1.1 G1d=100
